Reference: patent US6326466A, “Double-stranded RNA dependent protein kinase derived peptides to promote proliferation of cells and tissues in a controlled manner” (priority 1999, dated 2001)
Ends that are not written are not given here.

How the values were obtained:
[1] = target: T1, PKR (dsRNA-dependent protein kinase) (Oryctolagus cuniculus) (UniProt Q287T5); assay: competition; details: unlabeled poly(I)-poly(C) 80 ug/ml as competitor to TAR RNA
T1 sequence: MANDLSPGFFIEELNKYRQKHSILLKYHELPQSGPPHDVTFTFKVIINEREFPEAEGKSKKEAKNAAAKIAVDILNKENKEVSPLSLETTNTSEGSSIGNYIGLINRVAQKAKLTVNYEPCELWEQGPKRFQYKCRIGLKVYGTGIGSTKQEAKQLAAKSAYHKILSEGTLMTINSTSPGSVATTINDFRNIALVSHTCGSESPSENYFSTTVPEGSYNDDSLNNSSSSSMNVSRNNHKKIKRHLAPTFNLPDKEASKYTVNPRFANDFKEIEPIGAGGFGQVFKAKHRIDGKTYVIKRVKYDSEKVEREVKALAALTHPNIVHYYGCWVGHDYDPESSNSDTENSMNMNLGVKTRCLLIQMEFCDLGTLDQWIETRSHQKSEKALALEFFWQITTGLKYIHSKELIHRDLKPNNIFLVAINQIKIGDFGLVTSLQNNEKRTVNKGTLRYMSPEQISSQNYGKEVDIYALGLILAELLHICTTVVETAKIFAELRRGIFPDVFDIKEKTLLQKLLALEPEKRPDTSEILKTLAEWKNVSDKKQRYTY

3T3442A cells = format: cell-based; details: one hour at 37EC
Experimental: A PKR peptide antagonist (50 μg) having the sequence […] (SEQ ID NO: 25) comprising a cell permeability subsequence (residues 1-16 of SEQ ID NO:25), a heme agglutinin-epitope tag subsequence (residues 17-25 of SEQ ID NO:25), and a PKR peptide antagonist subsequence (residues 26-46 of SEQ ID NO:25) was radiolabeled with [^125 I]-iodine by the chloramine-T method (Hunter, W. M. and Greenwood, F. C. Nature 194:495-496, 1962) and purified by size exclusion chromatography using BioGel P2 (BioRad, Inc.) 35 million CPM of radiolabeled PKR peptide was added to pre-confluent cultures of 3T3442A cells grown in medium containing 10% FBS. After 1 hour at 37° C., the media was aspirated and the cells were washed four times in phosphate buffered saline (PBS). Cells were removed from the culture dishes by scraping and collected by centrifugation (4EC, 750×g, 5 min). The wash buffer was removed and the cell pellet was dissolved in SDS-polyacrylamide gel buffer (Laemmli, Nature (London), 227:680-685, 1970). The sample was analyzed by SDS-tricine polyacrylamide gel electrophoresis using 4-20% gradient tricine-SDS gels and the radiolabeled peptide antagonist was visualized by autoradiography of dried gels. […]
The subcellular localization of the PKR peptide antagonist (SEQ ID NO:25) that had been internalized by 3T3442A cells was determined by confocal microscopy. […]

Substance	binding signal (% inhibition of TAR complex) [1]	subcellular localization of internalized peptide (confocal microscopy, anti-HA) (3T3442A cells)
poly(I)-poly(C)	60	–
AAVALLPAVLLALLAPYPYDVPDYAKKEAKNAAAKLAVEILNKEKK [SEQ ID NO:25]	–	obvious, intense localization of the epitope-tagged peptide to the cell cytoplasm
